Measurements from paper PMC3210390.

T1: Tfam WT (mature) (Homo sapiens, UniProt Q00059 43-246)
T1 sequence: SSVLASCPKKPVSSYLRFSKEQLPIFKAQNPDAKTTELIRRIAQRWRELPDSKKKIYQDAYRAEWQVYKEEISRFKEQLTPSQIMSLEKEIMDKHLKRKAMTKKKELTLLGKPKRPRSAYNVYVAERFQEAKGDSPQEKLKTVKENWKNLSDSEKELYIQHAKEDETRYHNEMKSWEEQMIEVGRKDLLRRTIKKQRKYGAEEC

T2: Tfam HMG-box B (Homo sapiens, UniProt Q00059 153-222)
T2 sequence: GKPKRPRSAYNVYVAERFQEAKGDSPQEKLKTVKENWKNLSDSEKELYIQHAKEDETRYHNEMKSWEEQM

T3: Tfam L6 (Homo sapiens, UniProt Q00059 43-246, K136A;H137A;K139A;R140A;K146A;K147A)
T3 sequence: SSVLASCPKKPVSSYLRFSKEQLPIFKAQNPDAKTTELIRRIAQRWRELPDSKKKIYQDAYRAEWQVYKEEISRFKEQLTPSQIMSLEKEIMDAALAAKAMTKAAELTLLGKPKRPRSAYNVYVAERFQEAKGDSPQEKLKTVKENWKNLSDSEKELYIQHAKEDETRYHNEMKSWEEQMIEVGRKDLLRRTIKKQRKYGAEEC

T4: Tfam T77A (Homo sapiens, UniProt Q00059 43-246, T77A)
T4 sequence: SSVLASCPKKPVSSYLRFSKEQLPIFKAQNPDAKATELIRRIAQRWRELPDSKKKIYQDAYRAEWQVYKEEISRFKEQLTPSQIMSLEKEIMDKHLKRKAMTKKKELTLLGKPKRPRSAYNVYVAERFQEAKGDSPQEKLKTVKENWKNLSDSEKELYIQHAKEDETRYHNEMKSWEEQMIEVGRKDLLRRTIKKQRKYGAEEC

T5: Tfam HMG-box A (Homo sapiens, UniProt Q00059 43-122)
T5 sequence: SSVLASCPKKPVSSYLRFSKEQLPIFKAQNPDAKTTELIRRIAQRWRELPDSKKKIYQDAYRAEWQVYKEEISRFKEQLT

T6: Tfam Y162A (Homo sapiens, UniProt Q00059 43-246, Y162A)
T6 sequence: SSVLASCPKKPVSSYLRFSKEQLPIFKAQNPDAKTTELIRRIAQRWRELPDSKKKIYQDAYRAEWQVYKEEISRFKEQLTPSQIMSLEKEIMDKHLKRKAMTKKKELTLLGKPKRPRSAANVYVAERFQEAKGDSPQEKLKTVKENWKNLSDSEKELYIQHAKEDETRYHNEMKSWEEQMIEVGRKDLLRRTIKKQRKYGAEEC


Experiments:
[1] = target: T1, Tfam WT (mature); assay: intrinsic Trp fluorescence quenching
[2] = target: T2, Tfam HMG-box B; assay: intrinsic Trp fluorescence quenching
[3] = target: T3, Tfam L6; assay: intrinsic Trp fluorescence quenching
[4] = target: T4, Tfam T77A; assay: intrinsic Trp fluorescence quenching
[5] = target: T5, Tfam HMG-box A; assay: intrinsic Trp fluorescence quenching
[6] = target: T6, Tfam Y162A; assay: intrinsic Trp fluorescence quenching
[7] = target: T1, Tfam WT (mature); assay: FRET bending
[8] = target: T3, Tfam L6; assay: FRET bending
[9] = target: T4, Tfam T77A; assay: FRET bending
[10] = target: T6, Tfam Y162A; assay: FRET bending

Binder	Kd [1] [nM]	Kd [2] [nM]	Kd [3] [nM]	Kd [4] [nM]	Kd [5] [nM]	Kd [6] [nM]	binding signal [7] [% FRET efficiency]	binding signal [8] [% FRET efficiency]	binding signal [9] [% FRET efficiency]	binding signal [10] [% FRET efficiency]
LSP 28 bp (dsDNA) DNA 1: TGTTAGTTGGGGGGTGACTGTTAAAAGT DNA 2: ACTTTTAACAGTCACCCCCCAACTAACA	6 ± 0.9	411 ± 46	10.1 ± 1.2	7.6 ± 1.1	6.5 ± 1.2	12.3 ± 1.8				
LSP 28 bp Cy3/Cy5 (dsDNA) DNA 1: TGTTAGTTGGGGGGTGACTGTTAAAAGT DNA 2: ACTTTTAACAGTCACCCCCCAACTAACA							36.5 ± 0.8	26.1 ± 0.6	31.4 ± 0.2	29.4 ± 0.6
